8 proteins from PMC6707142, “Orthogonal monoterpenoid biosynthesis in yeast constructed on an isomeric substrate” (Nature Communications, 2019) can be followed below.

Residue numbers refer to the chain shown, from its start. Names may count otherwise.

Substrate in data set [1]: CC(C)=CCC/C(C)=C/COP(=O)(O)OP(=O)(O)O
The data set is described as follows: GC-MS of hexane-extracted monoterpene products. It counts as biochemical, Citrus x limon. As to conditions: 20 mM MOPS pH 7.0, 20 mM MgCl2, 0.02 mM MnCl2, 30 °C, 1 h. The source says: (§1) GC-MS of hexane-extracted monoterpene products on […]

Substrate in data set [2]: CC(C)=CCC/C(C)=C\COP(=O)(O)OP(=O)(O)O
The data set is described as follows: GC-MS of hexane-extracted monoterpene products. As to conditions: 20 mM MOPS pH 7.0, 20 mM MgCl2, 0.02 mM MnCl2, 30 °C, 1 h. Format: biochemical, Citrus x limon.
Text: as §1

Substrate in data set [3]: CC(C)=CCC/C(C)=C/COP(=O)(O)OP(=O)(O)O
The data set is described as follows: GC-MS of hexane-extracted monoterpene products. Format: biochemical, Salvia fruticosa. Particulars: 20 mM MOPS pH 7.0, 20 mM MgCl2, 0.02 mM MnCl2, 30 °C, 1 h. From the text:
(§2) GC-MS of hexane-extracted monoterpene products on […]1

Substrate in data set [4]: CC(C)=CCC/C(C)=C\COP(=O)(O)OP(=O)(O)O
The data set is described as follows: GC-MS of hexane-extracted monoterpene products. It counts as biochemical, Salvia fruticosa. Particulars: 20 mM MOPS pH 7.0, 20 mM MgCl2, 0.02 mM MnCl2, 30 °C, 1 h.
Text: as §2

Substrate in data set [5]: CC(C)=CCOP(=O)(O)OP(=O)(O)O
In words: GC-MS after acid hydrolysis of prenyl diphosphates. Format: biochemical, Solanum lycopersicum. As to conditions: 0.05 mM IPP, 10 mM MOPS pH 7.0, 5 mM MgCl2, 30 °C, 1 h.

Substrate in the data set “purified protein”: C=C(C)CCO[P@@](=O)(O)OP(=O)(O)O
The data set is described as follows: purified protein. As to conditions: 0.05 mM DMAPP, 10 mM MOPS pH 7.0, 5 mM MgCl2, 30 °C, 1 h.

B1: ClLimS (Citrus x limon) (protein)
chain: AKYKPVQCLISAKYDNLTVDRRSANYQPSIWDHDFLQSLNSNYTDEAYKRRAEELRGKVKIAIKDVIEPLDQLELIDNLQRLGLAHRFETEIRNILNNIYNNNKDYNWRKENLYATSLEFRLLRQHGYPVSQEVFNGFKDDQGGFICDDFKGILSLHEASYYSLEGESIMEEAWQFTSKHLKEVMISKNMEEDVFVAEQAKRALELPLHWKVPMLEARWFIHIYERREDKNHLLLELAKMEFNTLQAIYQEELKEISGWWKDTGLGEKLSFARNRLVASFLWSMGIAFEPQFAYCRRVLTISIALITVIDDIYDVYGTLDELEIFTDAVERWDINYALKHLPGYMKMCFLALYNFVNEFAYYVLKQQDFDLLLSIKNAWLGLIQAYLVEAKWYHSKYTPKLEEYLENGLVSITGPLIITISYLSGTNPIIKKELEFLESNPDIVHWSSKIFRLQDDLGTSSDEIQRGDVPKSIQCYMHETGASEEVARQHIKDMMRQMWKKVNAYTADKDSPLTGTTTEFLLNLVRMSHFMYLHGDGHGVQNQETIDVGFTLLFQPIPLEDKHMAFTASPGTKG
notes: 6xHis-tagged, E. coli BL21(DE3), Ni-NTA purified; printed as (+)-S-limonene synthase
As for B1, in data set [1], the Km was 24.94 ± 3.76 µM, the turnover number (kcat) amounted to 0.306 ± 0.0147 s⁻¹ and the kcat/Km is 12200 M⁻¹ s⁻¹. For the same protein, in data set [2], the Km came out at 81.55 ± 7.33 µM, the kcat was determined as 0.619 ± 0.0293 s⁻¹ and the specificity constant (kcat/Km) came out at 7600 M⁻¹ s⁻¹.

B2: ClLimS (Citrus x limon; H570I) (protein)
chain: B1 chain with H538I
notes: as for B1
With B2, in data set [1], the Km turned out to be 24.43 ± 6.44 µM, the kcat was found to be 0.0035 ± 0.000333 s⁻¹ and the kcat/Km was found to be 150 M⁻¹ s⁻¹. Besides, in data set [2], the Km turned out to be 27.06 ± 4.72 µM, the kcat came out at 0.0317 ± 0.00217 s⁻¹ and the kcat/Km turned out to be 1170 M⁻¹ s⁻¹.

B3: ClLimS (Citrus x limon; H570Y) (protein)
chain: B1 chain with H538Y
notes: as for B1
As to B3, in data set [1], the Km amounted to 11.76 ± 4.82 µM, the kcat was found to be 0.149 ± 0.00717 s⁻¹ and the kcat/Km turned out to be 12600 M⁻¹ s⁻¹. Also, in data set [2], the Km worked out at 23.98 ± 6.41 µM, the kcat was 0.364 ± 0.0277 s⁻¹ and the kcat/Km stood at 15200 M⁻¹ s⁻¹.

B4: SfCinS1 (Salvia fruticosa; F571V) (protein)
chain: CSLQTGNEIQTERRTGGYQPTLWDFSTIQSFDSEYKEEKHLMRAAGMIDQVKMMLQEEVDSIRRLELIDDLRRLGISCHFEREIVEILNSKYYTNNEIDERDLYSTALRFRLLRQYDFSVSQEVFDCFKNAKGTDFKPSLVDDTRGLLQLYEASFLSAQGEETLRLARDFATKFLQKRVLVDKDINLLSSIERALELPTHWRVQMPNARSFIDAYKRRPDMNPTVLELAKLDFNMVQAQFQQELKEASRWWNSTGLVHELPFVRDRIVECYYWTTGVVERRQHGYERIMLTKINALVTTIDDVFDIYGTLEELQLFTTAIQRWDIESMKQLPPYMQICYLALFNFVNEMAYDTLRDKGFDSTPYLRKVWVGLIESYLIEAKWYYKGHKPSLEEYMKNSWISIGGIPILSHLFFRLTDSIEEEAAESMHKYHDIVRASCTILRLADDMGTSLDEVERGDVPKSVQCYMNEKNASEEEAREHVRSLIDQTWKMMNKEMMTSSFSKYFVEVSANLARMAQWIYQHESDGVGMQHSLVNKMLRDLLFHRYE
notes: 6xHis-tagged, E. coli BL21(DE3), Ni-NTA purified
Take B4: in data set [3], the Km turned out to be 271.5 ± 95.30 µM, the kcat amounted to 0.00533 ± 0.00133 s⁻¹ and the kcat/Km was 16.7 M⁻¹ s⁻¹. Also, in data set [4], the Km came out at 67.24 ± 13.30 µM, the kcat came to 0.0075 ± 0.000667 s⁻¹ and the kcat/Km was found to be 117 M⁻¹ s⁻¹.

B5: SfCinS1 (Salvia fruticosa; F571L) (protein)
chain: B4 chain with V527L
notes: as for B4
For the protein B5, in data set [3], the Km turned out to be 55.72 ± 9.22 µM, the kcat is 0.00733 ± 0.00117 s⁻¹ and the catalytic efficiency (kcat/Km) was 133 M⁻¹ s⁻¹. Also, in data set [4], the Km was determined as 71.82 ± 17.63 µM, the kcat turned out to be 0.0107 ± 0.00133 s⁻¹ and the kcat/Km came out at 150 M⁻¹ s⁻¹.

B6: SfCinS1 (Salvia fruticosa) (protein)
chain: B4 chain with V527F
notes: as for B4
On to B6, for which, in data set [3], the Km amounted to 26.12 ± 2.79 µM, the catalytic constant (kcat) came out at 0.0927 ± 0.00633 s⁻¹ and the specificity constant (kcat/Km) came out at 3550 M⁻¹ s⁻¹. Besides, in data set [4], the Km is 89.46 ± 4.99 µM, the kcat came out at 0.203 ± 0.0445 s⁻¹ and the catalytic efficiency (kcat/Km) stood at 2280 M⁻¹ s⁻¹.

B7: SfCinS1 (Salvia fruticosa; F571H) (protein)
chain: B4 chain with V527H
notes: as for B4
As for B7, in data set [3], the Km turned out to be 18.05 ± 5.07 µM, the kcat was 0.0143 ± 0.0015 s⁻¹ and the kcat/Km came to 800 M⁻¹ s⁻¹. Besides, in data set [4], the Km was determined as 238.1 ± 34.35 µM, the kcat was 0.0123 ± 0.00133 s⁻¹ and the kcat/Km turned out to be 50 M⁻¹ s⁻¹.

B8: SlNPPS1 (Solanum lycopersicum) (protein)
chain: SARGLNKISCSLNLQTEKLCYEDNDNDLDEELMPKHIALIMDGNRRWAKDKGLEVYEGHKHIIPKLKEICDISSKLGIQIITAFAFSTENWKRSKEEVDFLLQMFEEIYDEFSRSGVRVSIIGCKSDLPMTLQKCIALTEETTKGNKGLHLVIALNYGGYYDILQATKSIVNKAMNGLLDVEDINKNLFDQELESKCPNPDLLIRTGGEQRVSNFLLWQLAYTEFYFTNTLFPDFGEEDLKEAIMNFQQRHRRFGGHTY
In the case of B8, the Km in data set [5] was determined as 66.72 ± 6.32 µM; in “purified protein”, 83.69 ± 17.41 µM. Moreover, the catalytic constant (kcat) in data set [5] was 0.000617 ± 1.7e-05 s⁻¹; in “purified protein”, 0.000683 ± 5e-05 s⁻¹.
